± gives the standard deviation.
Assay: protein stability index of a GFP-peptide fusion (GPS, HEK-293T) (PSI 1-6); higher = more stable
Details: c terminus: a fixed tail appended
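Note: 24-mer peptide tiles fused after GFP, lentivirally expressed, FACS-sorted into six equal bins by GFP/DsRed ratio, decoded by Illumina sequencing, PSI is the read-weighted mean bin number.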

Sequence: IIQYRLPMKKNNNLYSWDDFMELG [ACSBG2]
- protein stability index (treatment: DMSO): 2.12 ± 0.32
- protein stability index (treatment: MLN4924 1 uM, 8 h): 1.98 ± 0.25

Sequence: DSEEDEKMEEDIKEEEEKDHNEAM [PCMTD1]
- protein stability index (treatment: DMSO): 5.81 ± 0.082
- protein stability index (treatment: MLN4924 1 uM, 8 h): 5.64 ± 0.2

Sequence: YDCGEDFYRSTAPSEDIWKKFELV [MYCL]
- protein stability index (treatment: DMSO): 2.96 ± 0.19
- protein stability index (treatment: MLN4924 1 uM, 8 h): 3.33 ± 0.22

Sequence: ADAFHHQVHDDDLLSSSEEECKDR [EMD]
- protein stability index (treatment: DMSO): 5.66 ± 0.14
- protein stability index (treatment: MLN4924 1 uM, 8 h): 5.66 ± 0.17

Sequence: QLKEEMARHLREYQELLNVKMALD [PRPH]
- protein stability index (treatment: DMSO): 3.32 ± 0.22
- protein stability index (treatment: MLN4924 1 uM, 8 h): 3.5 ± 0.36

Sequence: EAAKQMRSRGKVLKTKDGKLPFCA [CPOX]
- protein stability index (treatment: DMSO): 3.89 ± 0.4
- protein stability index (treatment: MLN4924 1 uM, 8 h): 3.68 ± 0.23

Sequence: LAFVGGLPLAYQQTSAFARQPRDE [TMEM175]
- protein stability index (treatment: DMSO): 3 ± 0.31
- protein stability index (treatment: MLN4924 1 uM, 8 h): 3.06 ± 0.15

Sequence: VCGQNWGIVEAMVVCRQLGLGFAS [LOXL2]
- protein stability index (treatment: DMSO): 3.33 ± 0.11
- protein stability index (treatment: MLN4924 1 uM, 8 h): 3.18 ± 2

Sequence: PDPPVNFLRQKVLSLPLPDPLKYY [PCMTD2]
- protein stability index (treatment: DMSO): 2.85 ± 0.13
- protein stability index (treatment: MLN4924 1 uM, 8 h): 2.93 ± 0.079

Sequence: SLLDELMEVQHFRTIYHMFIAGLC [SOAT2]
- protein stability index (treatment: DMSO): 2.59 ± 0.55
- protein stability index (treatment: MLN4924 1 uM, 8 h): 2.49 ± 0.42

Sequence: RKLLNRHNIVFGDYTWTEFDEPFL [TRIP13]
- protein stability index (treatment: DMSO): 2.24 ± 0.24
- protein stability index (treatment: MLN4924 1 uM, 8 h): 2.64 ± 0.22

Sequence: LFQIDVYDFMNSAFSPIVILTERV [MIA2]
- protein stability index (treatment: DMSO): 2.75 ± 0.73
- protein stability index (treatment: MLN4924 1 uM, 8 h): 3.06 ± 0.91

Sequence: MVRSVAWAGFMVLLMIPWGSAAKL [CHIT1]
- protein stability index (treatment: DMSO): 3.13 ± 0.57
- protein stability index (treatment: MLN4924 1 uM, 8 h): 2.87 ± 0.2

Sequence: ENKVVEKAPVQNEAPALGGGEYQE [BEX5]
- protein stability index (treatment: DMSO): 5.41 ± 0.2
- protein stability index (treatment: MLN4924 1 uM, 8 h): 5.42 ± 0.32

Sequence: PVHTTILNPHIHLMGDESACIAYI [CAMK2A]
- protein stability index (treatment: DMSO): 2.42 ± 0.17
- protein stability index (treatment: MLN4924 1 uM, 8 h): 2.42 ± 0.082

Sequence: AVKKFVESEDDPVVKKIALREIRM [CDKL4]
- protein stability index (treatment: DMSO): 2.52 ± 0.25
- protein stability index (treatment: MLN4924 1 uM, 8 h): 2.98 ± 0.26

Sequence: SEVEELNMSLTALREKLLEAEQSL [TEKT4]
- protein stability index (treatment: DMSO): 3.52 ± 0.35
- protein stability index (treatment: MLN4924 1 uM, 8 h): 3.87 ± 0.2

Sequence: ILLDGSEYTCDVEKRSRGQVLFDK [EPB41L3]
- protein stability index (treatment: DMSO): 2.86 ± 0.55
- protein stability index (treatment: MLN4924 1 uM, 8 h): 2.94 ± 0.61

Sequence: HNDRVQALSYAQHTRQLISCGGDG [WDFY2]
- protein stability index (treatment: DMSO): 2.77 ± 0.28
- protein stability index (treatment: MLN4924 1 uM, 8 h): 2.53 ± 0.17

Sequence: KSCYNGRFQLLYVACGMVHLLIPE [DNAAF3]
- protein stability index (treatment: DMSO): 3.37 ± 0.63
- protein stability index (treatment: MLN4924 1 uM, 8 h): 2.77 ± 0.36

Sequence: EEPNGQIQGYRVYYTMDPTQHVNN [PTPRD]
- protein stability index (treatment: DMSO): 3.18 ± 0.19
- protein stability index (treatment: MLN4924 1 uM, 8 h): 3.17 ± 0.34

Sequence: DENLFTGEDLDELEEELNTLDLEE [ZC3H15]
- protein stability index (treatment: DMSO): 5.18 ± 0.75
- protein stability index (treatment: MLN4924 1 uM, 8 h): 5.44 ± 0.21

Sequence: MDEESELIQPQDQSCWAFLPDLCL [FBXO39]
- protein stability index (treatment: DMSO): 3.45 ± 0.17
- protein stability index (treatment: MLN4924 1 uM, 8 h): 3.34 ± 0.33

Sequence: TCSNKKALLKFKPGAFIAGVPVQP [LPCAT4]
- protein stability index (treatment: DMSO): 2.85 ± 0.4
- protein stability index (treatment: MLN4924 1 uM, 8 h): 3.03 ± 0.19

Sequence: YRVWKKMLASVESVPFSFDPNTAA [TRIM35]
- protein stability index (treatment: DMSO): 2.06 ± 0.28
- protein stability index (treatment: MLN4924 1 uM, 8 h): 2.3 ± 0.14

Sequence: PASTPSVLSSEQEFQMFPKSRLSS [ETS2]
- protein stability index (treatment: DMSO): 4.57 ± 0.21
- protein stability index (treatment: MLN4924 1 uM, 8 h): 4.57 ± 0.24

Sequence: DVIIEVNGVNVLDEPYEKVVDRIQ [PDZK1]
- protein stability index (treatment: DMSO): 3.73 ± 0.32
- protein stability index (treatment: MLN4924 1 uM, 8 h): 3.81 ± 0.97

Sequence: HRAVASRSEEAVQVLIKHSADVNA [ANKRD44]
- protein stability index (treatment: DMSO): 4.5 ± 0.28
- protein stability index (treatment: MLN4924 1 uM, 8 h): 4.47 ± 0.31

Sequence: GGYLTELEDGFYLTAFICFLVFIL [MFSD9]
- protein stability index (treatment: DMSO): 1.98 ± 0.22
- protein stability index (treatment: MLN4924 1 uM, 8 h): 2.14 ± 0.34

Sequence: TYKLKCKALQEENRDLRKASVTIQ [CCDC6]
- protein stability index (treatment: DMSO): 3.64 ± 0.3
- protein stability index (treatment: MLN4924 1 uM, 8 h): 3.7 ± 0.21

Sequence: VQRVMAQALGIPATECEFVGSLPV [LPCAT4]
- protein stability index (treatment: DMSO): 2.78 ± 0.25
- protein stability index (treatment: MLN4924 1 uM, 8 h): 2.76 ± 0.3

Sequence: ETVKLFICELVMALDYLQNQRIIH [STK32A]
- protein stability index (treatment: DMSO): 3.39 ± 0.55
- protein stability index (treatment: MLN4924 1 uM, 8 h): 3.08 ± 0.27

Sequence: SEVFGPERMPPSGAARSFQEVTEP [PXN]
- protein stability index (treatment: DMSO): 4.77 ± 0.32
- protein stability index (treatment: MLN4924 1 uM, 8 h): 5.19 ± 0.21

Sequence: EGFQRCDVARQLGKNNEFSRLVAG [PSD2]
- protein stability index (treatment: DMSO): 3.22 ± 0.25
- protein stability index (treatment: MLN4924 1 uM, 8 h): 3.58 ± 0.23

Sequence: SELCIWLGSQIKSLCNLEESITSA [FAM98B]
- protein stability index (treatment: DMSO): 1.97 ± 0.23
- protein stability index (treatment: MLN4924 1 uM, 8 h): 2.55 ± 0.18

Sequence: LNPHIHLMGDESACIAYIRITQYL [CAMK2A]
- protein stability index (treatment: DMSO): 2.8 ± 0.44
- protein stability index (treatment: MLN4924 1 uM, 8 h): 2.71 ± 0.51

Sequence: CIPATVRSSFANQGEICLCTSRIF [ALDH8A1]
- protein stability index (treatment: DMSO): 2.28 ± 0.52
- protein stability index (treatment: MLN4924 1 uM, 8 h): 2.38 ± 0.21

Sequence: QSCLLVIFATKPHVLPAVLAEVAP [PYCR3]
- protein stability index (treatment: DMSO): 3.09 ± 0.75
- protein stability index (treatment: MLN4924 1 uM, 8 h): 3.32 ± 0.74

Sequence: EGHQEGLVELPASFRELLTFFCTN [SCNN1D]
- protein stability index (treatment: DMSO): 2.73 ± 0.36
- protein stability index (treatment: MLN4924 1 uM, 8 h): 2.71 ± 0.34

Sequence: TLDVYNPFETREPPPAYEPPAPAP [SCAMP3]
- protein stability index (treatment: DMSO): 4.51 ± 0.18
- protein stability index (treatment: MLN4924 1 uM, 8 h): 4.61 ± 0.2

Sequence: PWLRQDPMPLAPTRSHLWEAAQVV [TRIB3]
- protein stability index (treatment: DMSO): 2.5 ± 0.18
- protein stability index (treatment: MLN4924 1 uM, 8 h): 2.27 ± 0.29

Sequence: PKGLDDESKDYLSLYLLLVSCPKS [SPOPL]
- protein stability index (treatment: DMSO): 2.34 ± 0.38
- protein stability index (treatment: MLN4924 1 uM, 8 h): 2.95 ± 0.69

Sequence: LRQQQDEAYLASLRADQEKERKKR [FAF2]
- protein stability index (treatment: DMSO): 4.36 ± 0.57
- protein stability index (treatment: MLN4924 1 uM, 8 h): 4.53 ± 0.4

Sequence: EDTTEEAQRRRMDEISDHAKVLTL [EIF5]
- protein stability index (treatment: DMSO): 5.24 ± 0.11
- protein stability index (treatment: MLN4924 1 uM, 8 h): 5.18 ± 0.2

Source: the supplement of paper PMC10567573
